Reference: publication PMC9668737, “Herpes simplex virus 1 protein pUL21 alters ceramide metabolism by activating the interorganelle transport protein CERT” (The Journal of Biological Chemistry, 2022)
Where a chain is given by its changes, count along the chain named. In names and notes the source's numbering stands. Several values for one entry are separate records, joined by “and”; a condition that tells them apart may be missing. Equal entries are not always repeated.

B1: pUL21^V382E-H6 (natural protein)
chain: MELSYATTMHYRDVVFYVTTDRNRAYFVCGGCVYSVGRPCASQPGEIAKFGLVVRGTGPDDRVVANYVRSELRQRGLQDVRPIGEDEVFLDSVCLLNPNVSSELDVINTNDVEVLDECLAEYCTSLRTSPGVLISGLRVRAQDRIIELFEHPTIVNVSSHFVYTPSPYVFALAQAHLPRLPSSLEALVSGLFDGIPAPRQPLDAHNPRTDVVITGRRAPRPIAGSGAGSGGAGAKRATVSEFVQVKHIDRVGPAGVSPAPPPNNTDSSSLVPGAQDSAPPGPTLRELWWVFYAADRALEEPRADSGLTREEVRAVRGFREQAWKLFGSAGAPRAFIGAALGLSPLQKLAVYYYIIHRERRLSPFPALVRLVGRYTQRHGLYEPRPDDPVLADAINGLFRDALAAGTTAEQLLMFDLLPPKDVPVGSDVQADSTALLRFIESQRLAVPGGVISPEHVAYLGAFLSVLYAGRGRMSAATHTARLTGVTSLVLAVGDVDRLSAFDRGAAGAASRTRAAGYLDVLLTVRLARSQHGQSV
B2: H6-miniCERTL (CERTL residues 20-131 plus 351-624) (domain or fragment, human, UniProt Q9Y5P4-1 20-131, looked up)
chain: SGPPVERCGVLSKWTNYIHGWQDRWVVLKNNALSYYKSEDETEYGCRGSICLSKAVITPHDFDECRFDISVNDSVWYLRAQDPDHRQQWIDAIEQHKTESGYGSESSLRRHGTSLPSGDAFSSVGTHRFVQKPYSRSSSMSSIDLVSASDDVHRFSSQVEEMVQNHMTYSLQDVGGDANWQLVVEEGEMKVYRREVEENGIVLDPLKATHAVKGVTGHEVCNYFWNVDVRNDWETTIENFHVVETLADNAIIIYQTHKRVWPASQRDVLYLSVIRKIPALTENDPETWIVCNFSVDHDSAPLNNRCVRAKINVAMICQTLVSPPEGNQEISRDNILCKITYVANVNPGGWAPASVLRAVAKREYPKFLKRFTSYVQEKTAGKPILF
notes: human CERTL, PH domain and start of the middle region, residues 20-131 of Q9Y5P4-1; human CERTL, end of the middle region and STARTL domain, residues 351-624 of Q9Y5P4-1 (middle region residues 132-350 left out); source: E. coli T7 Express lysY/Iq, purified (Ni-NTA, SEC); not shown: MAH6, N-terminal, kept
B3: H6-miniCERTL (domain or fragment, human, UniProt Q9Y5P4-1 20-624, looked up)
chain: B2 chain
notes: human CERTL, UniProt Q9Y5P4-1, residues 20-131 plus 351-624 (PH and STARTL domains joined by a retained 23 amino acid stretch of the middle region); Cloned into pOPTH; Monomer by SEC-MALS; source: E. coli T7 Express lysY/Iq, purified (Ni-NTA, SEC); not shown: MAH6, N-terminal, kept
B4: StrepII-CERTL^P (hyperphosphorylated human CERTL) (natural protein, UniProt Q9Y5P4-1 1-624, looked up)
chain: MSDNQSWNSSGSEEDPETESGPPVERCGVLSKWTNYIHGWQDRWVVLKNNALSYYKSEDETEYGCRGSICLSKAVITPHDFDECRFDISVNDSVWYLRAQDPDHRQQWIDAIEQHKTESGYGSESSLRRHGSMVSLVSGASGYSATSTSSFKKGHSLREKLAEMETFRDILCRQVDTLQKYFDACADAVSKDELQRDKVVEDDEDDFPTTRSDGDFLHSTNGNKEKLFPHVTPKGINGIDFKGEAITFKATTAGILATLSHCIELMVKREDSWQKRLDKETEKKRRTEEAYKNAMTELKKKSHFGGPDYEEGPNSLINEEEFFDAVEAALDRQDKIEEQSQSEKVRLHWPTSLPSGDAFSSVGTHRFVQKPYSRSSSMSSIDLVSASDDVHRFSSQVEEMVQNHMTYSLQDVGGDANWQLVVEEGEMKVYRREVEENGIVLDPLKATHAVKGVTGHEVCNYFWNVDVRNDWETTIENFHVVETLADNAIIIYQTHKRVWPASQRDVLYLSVIRKIPALTENDPETWIVCNFSVDHDSAPLNNRCVRAKINVAMICQTLVSPPEGNQEISRDNILCKITYVANVNPGGWAPASVLRAVAKREYPKFLKRFTSYVQEKTAGKPILF
modifications: hyperphosphorylated (CERTL^P); sites not given
notes: ceramide transport protein CERT, longer cytoplasmic isoform CERTL (with exon 11), human, UniProt Q9Y5P4-1; not shown: StrepII, N-terminal, kept
B5: StrepII-CERTL^S132A (constitutively hypophosphorylated human CERTL) (natural protein, UniProt Q9Y5P4-1 1-624, looked up)
chain: B4 chain with S132A
notes: ceramide transport protein CERT, longer cytoplasmic isoform CERTL, human, UniProt Q9Y5P4-1, with S132A; source: Freestyle 293F cells, stably transfected, doxycycline-induced, purified (StrepTrap, SEC); not shown: StrepII, N-terminal, kept

What was measured:
[1] = molecular target: T1, StrepII-CERT^P (UniProt Q9Y5P4-2 1-598, hyperphosphorylated (sites not given)); assay: cell-based or functional assay
T1 sequence (looked up): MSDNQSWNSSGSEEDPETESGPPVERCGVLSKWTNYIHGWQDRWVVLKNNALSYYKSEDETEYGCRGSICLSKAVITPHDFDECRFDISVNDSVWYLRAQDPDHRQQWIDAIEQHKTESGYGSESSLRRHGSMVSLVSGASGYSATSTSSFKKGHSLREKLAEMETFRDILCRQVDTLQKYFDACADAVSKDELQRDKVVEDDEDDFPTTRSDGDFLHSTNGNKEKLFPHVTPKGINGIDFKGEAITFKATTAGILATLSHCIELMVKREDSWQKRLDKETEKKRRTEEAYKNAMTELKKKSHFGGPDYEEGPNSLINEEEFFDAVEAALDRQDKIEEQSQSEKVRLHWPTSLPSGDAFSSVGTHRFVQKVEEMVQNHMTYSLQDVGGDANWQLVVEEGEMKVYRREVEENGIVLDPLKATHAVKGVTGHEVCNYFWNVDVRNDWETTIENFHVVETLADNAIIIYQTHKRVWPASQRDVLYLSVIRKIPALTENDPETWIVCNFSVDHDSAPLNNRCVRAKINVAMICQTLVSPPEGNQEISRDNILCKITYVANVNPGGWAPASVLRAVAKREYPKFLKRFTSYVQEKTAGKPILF

[2] = molecular target: T2, H6-pUL21C (C-terminal domain of HSV-1 pUL21, amino acids 275 to 535) (herpes simplex virus 1, UniProt F8RG07 275-535); assay: ITC; CERTL forms in the syringe titrated into pUL21 forms in the cell; 25 °C; 20 mM Tris pH 8.5, 500 mM NaCl, 0.5 mM TCEP; one-site binding model; single titrations; settings: both partners purified
T2 construct: C-terminal domain of pUL21 of herpes simplex virus 1, residues 275-535 of UniProt F8RG07; source: E. coli T7 Express lysY/Iq, purified (Ni-NTA, SEC); not shown: MAH6, N-terminal, kept
T2 sequence: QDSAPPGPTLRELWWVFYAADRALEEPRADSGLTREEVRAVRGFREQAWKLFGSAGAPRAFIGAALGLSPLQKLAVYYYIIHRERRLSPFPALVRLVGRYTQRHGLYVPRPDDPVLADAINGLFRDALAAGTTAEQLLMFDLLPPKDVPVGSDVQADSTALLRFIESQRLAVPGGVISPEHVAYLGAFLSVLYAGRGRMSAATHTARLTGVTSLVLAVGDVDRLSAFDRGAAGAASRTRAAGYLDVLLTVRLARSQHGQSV

[3] = molecular target: T3, pUL21^V382E-H6 (HSV-1 pUL21 with V382E) (herpes simplex virus 1, UniProt F8RG07 1-535, V382E); assay: as above; settings: both partners purified
T3 construct: tegument protein pUL21 of herpes simplex virus 1, UniProt F8RG07, with V382E; the text also writes H6-pUL21^V382E; also called H6-pUL21^V382E; source: E. coli T7 Express lysY/Iq, purified (Ni-NTA, SEC); not shown: His6, C-terminal, kept
T3 sequence: B1 chain

[4] = molecular target: T4, H6-pUL21C (herpes simplex virus 1 (HSV-1), UniProt F8RG07 275-535); assay: ITC; 25 °C; 20 mM Tris pH 8.5, 500 mM NaCl, 0.5 mM TCEP; CERTL forms in the syringe titrated into pUL21 forms in the cell; one-site binding model; settings: both partners purified
T4 construct: HSV-1 pUL21 C-terminal domain, amino acids 275-535, UniProt F8RG07; Cloned in pOPTH; Monomer by SEC-MALS and SAXS; also called C-terminal domain of pUL21; source: E. coli T7 Express lysY/Iq, purified (Ni-NTA, SEC); not shown: MAH6, N-terminal, kept
T4 sequence: T2 sequence

[5] = molecular target: B1; assay: as above; settings: both partners purified
[6] = molecular target: T5, pUL21-H6 (herpes simplex virus 1 (HSV-1), UniProt F8RG07 1-535); assay: as above; settings: both partners purified
T5 construct: HSV-1 pUL21, UniProt F8RG07; some paragraphs print H6-pUL21; also called H6-pUL21; WT pUL21; source: E. coli T7 Express lysY/Iq, purified (Ni-NTA, SEC); not shown: His6, C-terminal, kept
T5 sequence: B1 chain with E382V

[7] = molecular target: T6, pUL21-H6 (HSV-1 pUL21) (herpes simplex virus 1, UniProt F8RG07 1-535); assay: ITC; CERTL forms in the syringe titrated into pUL21 forms in the cell; 25 °C; 20 mM Tris pH 8.5, 500 mM NaCl, 0.5 mM TCEP; one-site binding model; single titrations; settings: both partners purified
T6 construct: tegument protein pUL21 of herpes simplex virus 1, UniProt F8RG07; source: E. coli T7 Express lysY/Iq, purified (Ni-NTA, SEC); not shown: His6, C-terminal, kept
T6 sequence: B1 chain with E382V

B1
EC50 of pUL21^V382E-H6 (62.5 nM to 4 μM) for accelerating GST-PP1-mediated dephosphorylation of 0.5 μM CERT^P in vitro, all proteins purified, 25 nM GST-PP1γ, 30 min at 30 °C [1]: 3.33 μM

B2
Kd [2]: 5.5 µM and 3.15 µM | stoichiometry N [2]: 0.95 and 1 | Kd [3]: 8.39 µM and 8.83 µM and 7.04 µM | stoichiometry N [3]: 1.22 and 1.01 and 1.25

B3
dH [4]: -3.84 kcal/mol | stoichiometry N [4]: 0.97 | Kd [5]: 8.09 µM | dH [5]: -7.2 kcal/mol | stoichiometry N [5]: 1.16 | Kd [6]: 1.04 µM | dH [6]: -8.65 kcal/mol | stoichiometry N [6]: 0.89

B4
stoichiometry N [7]: 0.76 and 0.72 and 0.74

B5
stoichiometry N [7]: 0.93 and 1.01
